We go through four molecules from patent publication US20250177432A1, “RNA MOLECULES AND COMPOSITIONS FOR CANCER IMMUNOTHERAPY” (WUHAN HOUXIAN BIOPHARMACEUTICAL CO. LTD., priority 2023, published 2025).

Data set [1] in a line: Translation of codon optimized OX40L and IL-12 mRNA. Particulars: FIG. 17. It counts as cell-based. From the text: Further, codon optimization was applied to the sequences of OX40L and IL-12 mRNA.
Another data set has as its system CT26 tumor cells. Put plainly: CT26 tumor model, IL-12/OX40L plus additional agent mRNA (Example 4). It counts as in vivo, mice. Particulars: 1.5 μg mRNA in total, days 9 and 12; for effect of adding the agent on the efficacy of the IL-12/OX40L combination: added agent fused to OX40L mRNA through IRES. The protocol: All of these agents were delivered, in various combinations, to the same animal model as used above, as mRNA (1.5 μg in total), on days 9 and 12, post-tumor cell implantation. While IL-12 and OX40L were encoded on different constructs, the added agent (e.g., FADD) was fused to the OX40L mRNA, through an IRES elements.
All the test agents were safe in the animals (FIG. 8).

“Also recorded” adds a separate entry of the source.

B1: #10: codon-optimized OX40L mRNA, SEQ ID NO:31 (nucleic acid)
chain: AUGGAGCGGGUCCAGCCCCUGGAGGAGAACGUUGGCAACGCAGCGCGGCCCAGGUUCGAGAGGAACAAGCUGCUGCUGGUUGCCAGCGUGAUCCAGGGGCUGGGCCUGCUCCUGUGCUUCACCUACAUCUGCCUGCACUUCAGCGCACUGCAGGUGAGCCACAGGUAUCCCAGGAUACAGAGCAUCAAGGUGCAGUUCACCGAGUACAAGAAGGAGAAGGGCUUCAUCCUCACUUCCCAGAAGGAGGAUGAGAUCAUGAAGGUGCAGAACAACAGCGUGAUCAUCAACUGUGACGGCUUCUACCUGAUCAGCCUGAAGGGGUACUUCAGCCAGGAGGUGAACAUCAGCCUCCACUACCAGAAGGAUGAGGAGCCCCUGUUUCAGCUGAAGAAGGUGAGGUCCGUCAACAGUCUGAUGGUCGCGUCCUUGACCUACAAGGACAAGGUGUACCUGAACGUGACCACCGACAACACCAGCCUGGACGACUUCCAUGUGAACGGCGGUGAGCUGAUCUUGAUUCACCAGAACCCUGGUGAGUUCUGUGUCCUGUGA
As for B1, the translation level result in data set [1] is “relatively lower translation level”.

B2: #8: codon-optimized OX40L mRNA, SEQ ID NO:29 (nucleic acid)
chain: AUGGAGAGGGUGCAGCCCCUGGAGGAGAACGUUGGCAACGCCGCGAGGCCCAGGUUCGAGCGCAACAAGCUCCUCCUGGUUGCCAGCGUGAUCCAGGGGCUGGGGCUGCUGUUGUGCUUUACAUACAUUUGUUUGCACUUCAGCGCCCUGCAGGUGUCACACAGGUACCCUCGUAUCCAGAGUAUUAAGGUGCAGUUCACCGAGUACAAGAAGGAGAAGGGCUUCAUCUUGACCUCCCAGAAGGAGGACGAGAUAAUGAAGGUCCAGAACAACUCCGUAAUCAUCAACUGUGACGGAUUUUACCUUAUCAGCUUGAAGGGGUACUUCUCCCAGGAGGUGAACAUCAGCCUCCACUACCAGAAGGACGAGGAGCCCCUUUUCCAGCUGAAGAAGGUGAGAUCCGUCAACAGUCUGAUGGUUGCGAGUCUGACCUACAAGGAUAAGGUGUACCUGAAUGUGACCACCGACAACACCUCUCUCGAUGACUUUCACGUGAACGGGGGCGAGCUGAUUCUGAUCCAUCAGAAUCCCGGCGAGUUCUGCGUUCUGUGA
Consider B2, for which, in data set [1], the translation level result was “relatively lower translation level”.

B3: MLKL: mRNA encoding MLKL (mixed lineage kinase domain like pseudokinase) or its four-helix bundle domain (nucleic acid)
chain: AUGGAAAAUUUGAAGCAUAUUAUCACCCUUGGCCAGGUCAUCCACAAACGGUGUGAAGAGAUGAAAUACUGCAAGAAACAGUGCCGGCGCCUGGGCCACCGCGUCCUCGGCCUGAUCAAGCCUCUGGAGAUGCUCCAGGACCAAGGAAAGAGGAGCGUGCCCUCUGAGAAGUUAACCACAGCCAUGAACCGCUUCAAGGCUGCCCUGGAGGAGGCUAAUGGGGAGAUAGAAAAGUUCAGCAAUAGAUCCAAUAUCUGCAGGUUUCUAACAGCAAGCCAGGACAAAAUACUCUUCAAGGACGUGAACAGGAAGCUGAGUGAUGUCUGGAAGGAGCUCUCGCUGUUACUUCAGGUUGAGCAACGCAUGCCUGUUUCACCCAUAAGCCAAGGAGCGUCCUGGGCACAGGAAGAUCAGCAGGAUGCAGACGAAGACAGGCGAGCUUUCCAGAUGCUAAGAAGAGAUAAUGAAAAAAUAGAAGCUUCACUGAGACGAUUAGAAAUCAACAUGAAAGAAAUCAAGGAAACUUUGAGGCAGUAUUUACCACCAAAAUGCAUGCAGGAGAUCCCGCAAGAGCAAAUCAAGGAGAUCAAGAAGGAGCAGCUUUCAGGAUCCCCGUGGAUUCUGCUAAGGGAAAAUGAAGUCAGCACACUUUAUAAAGGAGAAUACCACAGAGCUCCAGUGGCCAUAAAAGUAUUCAAAAAACUCCAGGCUGGCAGCAUUGCAAUAGUGAGGCAGACUUUCAAUAAGGAGAUCAAAACCAUGAAGAAAUUCGAAUCUCCCAACAUCCUGCGUAUAUUUGGGAUUUGCAUUGAUGAAACAGUGACUCCGCCUCAAUUCUCCAUUGUCAUGGAGUACUGUGAACUCGGGACCCUGAGGGAGCUGUUGGAUAGGGAAAAAGACCUCACACUUGGCAAGCGCAUGGUCCUAGUCCUGGGGGCAGCCCGAGGCCUAUACCGGCUACACCAUUCAGAAGCACCUGAACUCCACGGAAAAAUCAGAAGCUCAAACUUCCUGGUAACUCAAGGCUACCAAGUGAAGCUUGCAGGAUUUGAGUUGAGGAAAACACAGACUUCCAUGAGUUUGGGAACUACGAGAGAAAAGACAGACAGAGUCAAAUCUACAGCAUAUCUCUCACCUCAGGAACUGGAAGAUGUAUUUUAUCAAUAUGAUGUAAAGUCUGAAAUAUACAGCUUUGGAAUCGUCCUCUGGGAAAUCGCCACUGGAGAUAUCCCGUUUCAAGGCUGUAAUUCUGAGAAGAUCCGCAAGCUGGUGGCUGUGAAGCGGCAGCAGGAGCCACUGGGUGAAGACUGCCCUUCAGAGCUGCGGGAGAUCAUUGAUGAGUGCCGGGCCCAUGAUCCCUCUGUGCGGCCCUCUGUGGAUGAAAUCUUAAAGAAACUCUCCACCUUUUCUAAGUAG
Turning to B3, in the data set with CT26 tumor cells, the “anti-tumor effect of the added agent alone” value is reported as “did not have observable anti-tumor effects”; the “effect of adding the agent on the efficacy of the IL-12/OX40L combination” value is “further increased the efficacy of the IL-12/OX12L combination; also recorded: greater than by GSDMD and TNFR”.

B4: FADD: mRNA encoding FADD (FAS-associated death domain protein) (nucleic acid)
chain: AUGGACCCGUUCCUGGUGCUGCUGCACUCGGUGUCGUCCAGCCUGUCGAGCAGCGAGCUGACCGAGCUCAAGUUCCUAUGCCUCGGGCGCGUGGGCAAGCGCAAGCUGGAGCGCGUGCAGAGCGGCCUAGACCUCUUCUCCAUGCUGCUGGAGCAGAACGACCUGGAGCCCGGGCACACCGAGCUCCUGCGCGAGCUGCUCGCCUCCCUGCGGCGCCACGACCUGCUGCGGCGCGUCGACGACUUCGAGGCGGGGGCGGCGGCCGGGGCCGCGCCUGGGGAAGAAGACCUGUGUGCAGCAUUUAACGUCAUAUGUGAUAAUGUGGGGAAAGAUUGGAGAAGGCUGGCUCGUCAGCUCAAAGUCUCAGACACCAAGAUCGACAGCAUCGAGGACAGAUACCCCCGCAACCUGACAGAGCGUGUGCGGGAGUCACUGAGAAUCUGGAAGAACACAGAGAAGGAGAACGCAACAGUGGCCCACCUGGUGGGGGCUCUCAGGUCCUGCCAGAUGAACCUGGUGGCUGACCUGGUACAAGAGGUUCAGCAGGCCCGUGACCUCCAGAACAGGAGUGGGGCCAUGUCCCCGAUGUCAUGGAACUCAGACGCAUCUACCUCCGAAGCGUCCUGA
B4: in the data set on CT26 tumor cells, the “anti-tumor effect of the added agent alone” value is “did not have observable anti-tumor effects”; the “effect of adding the agent on the efficacy of the IL-12/OX40L combination” value is “further increased the efficacy of the IL-12/OX12L combination; also recorded: greater than by GSDMD and TNFR”.
